# Source: patent US20220112288A1 (published 2022)
# Assays:
# [1] = molecular target: T1, human CD4 on cells (SKW3 cells; human PBMCs) (human, UniProt P01730 26-458); assay: FACS binning on SKW3 cells; competitor OKT4-A488; background 2163, max binding 8200
# T1 construct: whole, on cells; SKW3 CD4 knockout cells served as the negative cell line in the primary screen; also called hCD4; huCD4
# [2] = molecular target: T1, human CD4 on cells (SKW3 cells; human …); assay: FACS confirmation, supernatant on SKW3 cells; background gMFI 3300
# [3] = molecular target: T1, human CD4 on cells (SKW3 cells; human …); assay: FACS primary screen, hybridoma supernatant, SKW3 vs SKW3 CD4 KO cells;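 also: flow cytometry on mixed SKW3 and dye-labeled SKW3 CD4 knockout cells after 30 min at 4 °C with supernatant, ratio of binding signal on parental versus knockout cells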
# [4] = molecular target: T1, human CD4 on cells (SKW3 cells; human …); assay: FACS confirmation, supernatant on human PBMCs;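 also: flow cytometry with hybridoma supernatants incubated on human PBMCs for 30 min at 4 °C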
# [5] = molecular target: T1, human CD4 on cells (SKW3 cells; human …); assay: FACS binning on SKW3 cells; competitor OKT4a; background 5000, max binding 35000
# huCD4-HIS = molecular target: T2, huCD4-HIS (human, UniProt P01730 26-390, limits assumed); assay: ELISA binning; competitor ibalizumab; 100 ng/mL huCD4-HIS, anti-HIS HRP; background 45, max binding 3000000
# T2 construct: the ELISA is not described in the text of this stretch; also called human CD4-HIS
# [6] = molecular target: T1, human CD4 on cells (SKW3 cells; human …); assay: FACS confirmation, supernatant on SKW3 cells; background gMFI 2500
# [7] = molecular target: T1, human CD4 on cells (SKW3 cells; human …); assay: FACS binning on SKW3 cells; competitor RPA-T4-PE-Dazzle 594; background 783, max binding 15000
Binder,OKT4-A488 signal with supernatant [1],"gMFI on SKW3 WT, anti-mFc 647 [2]","SKW3 WT vs KO ratio, anti-hKappa-FITC [3]","SKW3 WT vs KO ratio, anti-mFc-647 [3]","PBMCs CD4+ gate RL1 binding, anti-mFc 647 [4]",PBMCs CD4+ percent bound of viable [4],OKT4a signal (anti-hu A647) with supernatant [5],Ibalizumab ELISA binning signal (huCD4-HIS),"gMFI on SKW3 WT, anti-hu Kappa FITC [6]",RPA-T4-PE-Dazzle 594 signal with supernatant [7]
"75110_10O16A (antibody, V domains shown, Tested as non-clonal AlivaMab Mouse Kappa hybridoma supernatant (detected with anti-mouse Fc gamma and anti-human kappa); also called 75110_10016A) VH: EVQLVESGGGLVQPGGSLRLSCAASGFTFSNSDMHWVRQATGKGLEWVSTIGTAGDTYYPGSVKGRFTISRENAKNSLYLQMNSLRAGDTAVYYCARGGLYYYGMDVWGQGTTVTVSS VL: ENVLTQSPGTLSLSPGERATLSCRASQSVSSSYLAWYQQKPGQAPRLLIYGASSRATGIPDRFSGSGSGTDFTLTISRLEPEDFAVYYCHQFGSSPFTFGPGTKVDIK",8260,5460 gMFI,1.3,2.4,72100,23%,34800,2.37e+06,3160 gMFI,15300
"75110_01E08A (antibody, V domains shown, Tested as non-clonal AlivaMab Mouse Kappa hybridoma supernatant (detected with anti-mouse Fc gamma and anti-human kappa)) VH: EVQLVESGGGLVQPGGSLRLSCAASGFTFNNYDMHWVRQATGKGLEWVSTIGTAGDTYYPASVKGRFTIYRENAKNSLYLQMNSLRAGDTAVYYCARGGDYYYGMDVWGQGTTVTVSS VL: not shown",3330,22900 gMFI,2.2,5.9,302000,29%,43300,1.84e+06,6340 gMFI,14400
"75110_08K12A (antibody, V domains shown, Tested as non-clonal AlivaMab Mouse Kappa hybridoma supernatant (detected with anti-mouse Fc gamma and anti-human kappa)) VH: EVQLVESGGGLVQPGGSLRLSCAASGFTFSSYDMHWVRQATGKGLEWVSTIGTAGDTYYPGSVKGRFTISRENAENSLYLQMNSLRAGDTALYYCARGDYYYYGMDVWGQGTTVTVSS VL: EIVLTQSPGTLSLSPGERATLSCRASQSVSSTYLAWYQQKPGQAPRLLIYGASNRATGIPDRFSGSGSGTDFTLTISRLEPEDFAVYYCQQFGTSPFTFGPGTKVDIK",8660,16600 gMFI,1.7,4.7,276000,29%,39200,1.98e+06,5300 gMFI,16000
"75110_08F20A (antibody, V domains shown, Tested as non-clonal AlivaMab Mouse Kappa hybridoma supernatant (detected with anti-mouse Fc gamma and anti-human kappa)) VH: QVQLQESGPGLVKPSETLSLTCSVSGGSISTYYWSWIRQPAGKGLEWIGRICTTENTNYNPSLKSRVTMSIDSSKNQFSLKLSSVTAADTAVYYCARDLERLNYYGMDVWGQGATVTVSS VL: DIQMTQSPSSLSASVGDRVTITCQASQDISKYLNWYQQKPGIAPKLLIYDASNLETGVPSRFSGSGSGTDFTFTISSLQPEDFATYYCQQYDSLPITFGQGTRLEIK",7410,31500 gMFI,1.7,3.1,253000,32%,44800,1.41e+06,6170 gMFI,15500
"75110_14N19A (antibody, V domains shown, Tested as non-clonal AlivaMab Mouse Kappa hybridoma supernatant (detected with anti-mouse Fc gamma and anti-human kappa)) VH: QVQLQESGPGLVKPSETLSLTCTVSGGSISRYYWSWIRQPAGKGLEWIGRICTSENPNYNPALKSRVTMSVDTSKNQFSLKLSSVTAADTAVYYCARELERLNYYGMDVWGQGTTVTVSS VL: DIQMTQFPSSLSASVGDRVTITCQASQDISNYLNWYQQKPGKAPKLLIYDASNLESGVPSRFSGRGSGTDFTFTISSLQPEDFATFYCQQYDTLPITFGQGTRLEIK",9080,28600 gMFI,3.8,14.9,277000,29%,29700,1.28e+06,7640 gMFI,16600
"75110_08G08A (antibody, V domains shown, Tested as non-clonal AlivaMab Mouse Kappa hybridoma supernatant (detected with anti-mouse Fc gamma and anti-human kappa)) VH: QVQLQESGPGLVKPSETLSLTCSVSGGSISTYYWSWIRQPAGKGLEWIGRICTTENTNYNPSLKSRVTMSIDSSKNQFSLKLSSVTAADTAVYYCARDLERLNYYGMDVWGQGATVTVSS VL: DIQMTQSPSSLSASVGDRVTITCQASQDISNYLNWYQQKPGIAPKLLIYDASNLETGVPSRFSGSGSGTDFTFTISSLQPEDIATYYCQQYDSLPITFGQGTRLEIK",8890,19400 gMFI,2.4,5.7,314000,30%,38400,1.69e+06,5840 gMFI,16200
"75110_14G10A (antibody, V domains shown, Tested as non-clonal AlivaMab Mouse Kappa hybridoma supernatant (detected with anti-mouse Fc gamma and anti-human kappa)) VH: EVQLVESGGGLVKPGGSLRLSCAASGFTFSSYSMNWVRQAPGKGLEWVSFISSSSSYIYYADSVKGRFTISRDNAKNSLYLQMNSLRAEDTAVYYCARERGDDYGDYEGAFDIWGQGTMVTVSS VL: not shown",8720,8910 gMFI,1.1,2.2,142000,32%,41800,1.21e+06,3410 gMFI,10100
"75110_14P08A (antibody, V domains shown, Tested as non-clonal AlivaMab Mouse Kappa hybridoma supernatant (detected with anti-mouse Fc gamma and anti-human kappa)) VH: QVQLQESGPGLVKSSETLSLTCTDSGDSIRSYYWNWIRQPAGKGLEWIGRIYASGSTNYNPSLKSRVIMSADTSKNRFSLKLSSVTAADTAVYYCARDGGVGDSLDYWGQGTLVTVSS VL: DIVMTQTPLSLPVTPGEPASISCRSSQSLLDSDDGNTYLDWYLQKPGQSPQLLIYTLSYRASGVPDRFSGSGSGTDFTLKISRVEAEDVGVYYCMQRIEFPFTFGPGTKVDIK",9100,20300 gMFI,2.2,6.7,292000,30%,38400,2.2e+06,5580 gMFI,16400
"75110_02N15A (antibody, V domains shown, Tested as non-clonal AlivaMab Mouse Kappa hybridoma supernatant (detected with anti-mouse Fc gamma and anti-human kappa)) VH: EVQLVESGGGLVQPGGSLRLSCAASGFTFSSYWMSWVRQAPGKGLEWVANINEDGNEKYYVDSVKGRFTISRDNAKNSLFLQMNSLRAEDTAVYFCAREGGQWLALDHWGQGALVTVSS VL: DIQMTQSPSSVSASVGDRVTITCRASQGISSWLAWYQQKPGKAPKFLISGASSLQSGVPSRFSGSGSGTDFTLTISSLQPEDFATYYCQQANSFPWTFGQGTKVEFK",3020,15900 gMFI,2.1,4.9,250000,27%,42900,1.98e+06,5000 gMFI,14200
